# Test results taken from PMC12824264 (2025).
# B1: sENG(D):BMP9 complex (complex)
# chain 1: ETVHCDLQPVGPERGEVTYTTSQVSKGCVAQAPNAILEVHVLFLEFPTGPSQLELTLQASKQNGTWPREVLLVLSVNSSVFLHLQALGIPLHLAYNSSLVTFQEPPGVNTTELPSFPKTQILEWAAERGPITSAAELNDPQSILLRLGQAQGSLSFCMLEASQDMGRTLEWRPRTPALVRGCHLEGVAGHKEAHILRVLPGHSAGPRTVTVKVELSCAPGDLDAVLILQGPPYVSWLIDANHNMQIWTTGEYSFKIFPEKNIRGFKLPDTPQGLLGEARMLNASIVASFVELPLASIVSLHASSCGGRLQTSPAPIQTTPPKDTCSPELLMSLIQTKCADDAMTLVLKKELVAHLKCTITGLTFWDPSCEAEDRGDKFVLRSAYSSCGMQVSASMISNEAVVNILSSSSPQRKKVHCLNMDSLSFQLGLYLSPHFLQASNTIEPGQQSFVQVRVSPSVSEFLLQLDSCHLDLGPEGGTVELIQGRAAKGNCVSLLSPSPEGDPRFSFLLHFYTVPIPKTGTLSCTVALRPKTGSQDQEVHRTVFMRLNIISPDLSGCTSKG
# chain 2: SAGAGSHCQKTSLRVNFEDIGWDSWIIAPKEYEAYECKGGCFFPLADDVTPTKHAIVQTLVHLKFPTKVGKACCVPTKLSPISVLYKDDMGVPTLKYHYEGMSVAECGCR
# B2: sENG(M):BMP10 complex (complex)
# chain 1: B1 chain 1
# chain 2: NAKGNYCKRTPLYIDFKEIGWDSWIIAPPGYEAYECRGVCNYPLAEHLTPTKHAIIQALVHLKNSQKASKACCVPTKLEPISILYLDKGVVTYKFKYEGMAVSECGCR
# B3: sENG(D):BMP10 complex (complex)
# chain 1: B1 chain 1
# chain 2: B2 chain 2
# B4: sENG(M):BMP9 complex (complex)
# chain 1: B1 chain 1
# chain 2: B1 chain 2
# B5: BMP9 growth factor domain (GFD) dimer (ligand)
# chain: B1 chain 2
# B6: BMP10 growth factor domain (GFD) dimer (ligand)
# chain: B2 chain 2
# Target: T1, ALK1-Fc (UniProt P37023 22-118)
# Experiment: SPR
row,Kd [nM],Binder
1,0.422,B1
2,1.68,B2
3,2.97,B3
4,0.179,B4

# Target: T1, ALK1-Fc
# Experiment: SPR
# Remark: another data set of the same source
row,koff [s⁻¹],Binder
1,0.000236,B1
2,0.000162,B5
3,0.00017,B2
4,0.000329,B3
5,0.000124,B4
6,0.000169,B6
